Test results: paper PMC5766207

Assays:
σJ = biological target: T1, σJ (Mycobacterium tuberculosis, UniProt L0TCG5 1-312); assay: EMSA
T1 sequence: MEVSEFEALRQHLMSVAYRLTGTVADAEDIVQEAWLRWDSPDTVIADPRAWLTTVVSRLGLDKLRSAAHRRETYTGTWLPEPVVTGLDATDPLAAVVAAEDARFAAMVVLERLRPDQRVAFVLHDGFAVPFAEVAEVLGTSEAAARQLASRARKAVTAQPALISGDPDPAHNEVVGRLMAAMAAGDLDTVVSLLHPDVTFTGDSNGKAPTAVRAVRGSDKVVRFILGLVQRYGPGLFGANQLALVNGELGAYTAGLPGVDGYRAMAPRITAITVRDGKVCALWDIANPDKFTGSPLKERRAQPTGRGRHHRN

σJSnoaL_2 = biological target: T2, σJSnoaL_2 (Mycobacterium tuberculosis, UniProt L0TCG5 162-312); assay: EMSA
T2 sequence: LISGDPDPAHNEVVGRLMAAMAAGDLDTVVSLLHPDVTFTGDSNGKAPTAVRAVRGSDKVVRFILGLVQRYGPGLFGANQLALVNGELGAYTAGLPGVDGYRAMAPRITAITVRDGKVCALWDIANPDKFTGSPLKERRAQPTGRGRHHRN

B1: wt-sigIp (dsDNA)
DNA 1: GCTGTCACATTCGGCGGGGCTGTCTCGTCCTTGA
DNA 2: TCAAGGACGAGACAGCCCCGCCGAATGTGACAGC
In the case of B1, the Kd (σJ) is reported as 4.96 ± 0.94 µM and the binding result (σJSnoaL_2) is reported as “no binding”.
